# How the values were obtained:
# [1] = target: HIV-1 CA (capsid protein) M68C/E212C (HIV-1); test: cross-linking; spontaneous disulfide crosslinking of engineered cysteines in virions; viruses pelleted through 20% sucrose (100,000 x g, 30 min), dissolved in SDS sample buffer without beta-mercaptoethanol, 95°C 5 min, SDS-PAGE, immunoblot with rabbit polyclonal anti-CA antibody
# [2] = target: HIV-1 CA (capsid protein) Q63C/Y169C (HIV-1); test: as above
Substance,stoichiometry N [1],stoichiometry N [2]
HIV-1 CA (capsid protein) M68C/E212C (natural protein),6,
HIV-1 CA (capsid protein) Q63C/Y169C (natural protein),,6

# From article PMC3623829
